Assays:
cipko_arath CIPK24 [1] = target: cipko_arath CIPK24 (UniProt Q9LDI3)
cipko_arath CIPK24 [2] = target: cipko_arath CIPK24 (UniProt Q9LDI3); remark: listed apart in the source

cipko_arath CIPK24, sequence (Q9LDI3 whole entry): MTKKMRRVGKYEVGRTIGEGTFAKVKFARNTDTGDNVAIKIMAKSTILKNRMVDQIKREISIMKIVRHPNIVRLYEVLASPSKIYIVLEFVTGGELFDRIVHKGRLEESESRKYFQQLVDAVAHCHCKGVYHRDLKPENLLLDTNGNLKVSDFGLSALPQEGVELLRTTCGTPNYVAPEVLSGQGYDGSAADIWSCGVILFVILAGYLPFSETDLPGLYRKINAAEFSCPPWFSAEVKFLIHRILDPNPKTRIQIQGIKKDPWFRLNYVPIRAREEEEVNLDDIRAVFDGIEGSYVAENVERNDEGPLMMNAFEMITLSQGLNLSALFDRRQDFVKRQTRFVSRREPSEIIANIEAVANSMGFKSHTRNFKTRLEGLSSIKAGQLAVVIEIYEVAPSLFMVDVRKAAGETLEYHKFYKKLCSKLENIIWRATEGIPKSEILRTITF
Calcineurin B-like protein 10 (Arabidopsis thaliana (Mouse-ear cress)), Q7FRS8-2 S237A, sequence (Q7FRS8 other isoform, or with tags, fused parts or gaps S237A): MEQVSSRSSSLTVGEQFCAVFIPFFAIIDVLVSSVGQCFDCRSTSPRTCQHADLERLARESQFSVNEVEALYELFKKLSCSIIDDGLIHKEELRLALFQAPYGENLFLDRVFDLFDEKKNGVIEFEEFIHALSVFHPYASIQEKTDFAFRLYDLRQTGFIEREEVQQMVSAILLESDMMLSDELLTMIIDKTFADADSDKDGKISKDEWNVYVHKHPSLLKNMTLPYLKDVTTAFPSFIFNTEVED
Calcineurin B-like protein 10 (Arabidopsis thaliana (Mouse-ear cress)), Q7FRS8-2 S237D, sequence (Q7FRS8 other isoform, or with tags, fused parts or gaps S237D): as the sequence (Q7FRS8 other isoform, or with tags, fused parts or gaps S237A) above

Substance	effect of a mutation on the interaction (cipko_arath CIPK24 [1])	effect of a mutation on the interaction (cipko_arath CIPK24 [2])
Calcineurin B-like protein 10 (Arabidopsis thaliana (Mouse-ear cress)), Q7FRS8-2 S237A	disrupting interaction	decreasing interaction
Calcineurin B-like protein 10 (Arabidopsis thaliana (Mouse-ear cress)), Q7FRS8-2 S237D		increasing interaction

Reference: IntAct's records for PubMed 19448033
